Molecular target: CD38 (human) (UniProt P28907)
Assay: cell-based or functional assay

Which ADCC (percent specific lysis) of MM.1R multiple myeloma cells by AB-101, 0.31:1 E:T, 2 µg/mL daratumumab, 4 h does the source give for daratumumab (antibody) here?
The ADCC (percent specific lysis) of MM.1R multiple myeloma cells by AB-101, 0.31:1 E:T, 2 µg/mL daratumumab, 4 h was 4.88%.

And the ADCC (percent specific lysis) of MM.1R multiple myeloma cells by AB-101, 10:1 E:T, 2 µg/mL daratumumab, 4 h?
The ADCC (percent specific lysis) of MM.1R multiple myeloma cells by AB-101, 10:1 E:T, 2 µg/mL daratumumab, 4 h was 42.4%.

What about the ADCC (percent specific lysis) of MM.1S multiple myeloma cells by AB-101, 0.31:1 E:T, 2 µg/mL daratumumab, 4 h of the same substance?
The ADCC (percent specific lysis) of MM.1S multiple myeloma cells by AB-101, 0.31:1 E:T, 2 µg/mL daratumumab, 4 h was 2.34%.

And the ADCC (percent specific lysis) of MM.1S multiple myeloma cells by AB-101, 10:1 E:T, 2 µg/mL daratumumab, 4 h?
The ADCC (percent specific lysis) of MM.1S multiple myeloma cells by AB-101, 10:1 E:T, 2 µg/mL daratumumab, 4 h was 19.8%.

And the ADCC (percent specific lysis) of NCI-H929 multiple myeloma cells by AB-101, 0.31:1 E:T, 2 µg/mL daratumumab, 4 h?
Its ADCC (percent specific lysis) of NCI-H929 multiple myeloma cells by AB-101, 0.31:1 E:T, 2 µg/mL daratumumab, 4 h is 3.38%.

What about the ADCC (percent specific lysis) of NCI-H929 multiple myeloma cells by AB-101, 10:1 E:T, 2 µg/mL daratumumab, 4 h of the same substance?
Its ADCC (percent specific lysis) of NCI-H929 multiple myeloma cells by AB-101, 10:1 E:T, 2 µg/mL daratumumab, 4 h is 46.4%.

What about the ADCC (percent specific lysis) of RPMI 8226 multiple myeloma cells by AB-101, 0.31:1 E:T, 2 µg/mL daratumumab, 4 h of the same substance?
Its ADCC (percent specific lysis) of RPMI 8226 multiple myeloma cells by AB-101, 0.31:1 E:T, 2 µg/mL daratumumab, 4 h is 8.75%.

What about the ADCC (percent specific lysis) of RPMI 8226 multiple myeloma cells by AB-101, 10:1 E:T, 2 µg/mL daratumumab, 4 h of the same substance?
Its ADCC (percent specific lysis) of RPMI 8226 multiple myeloma cells by AB-101, 10:1 E:T, 2 µg/mL daratumumab, 4 h is 58.2%.

And the complement-dependent cytotoxicity of Daudi cells with human complement serum: daratumumab concentration at which lysis was saturated?
The complement-dependent cytotoxicity of Daudi cells with human complement serum: daratumumab concentration at which lysis was saturated was less than 0.41 µg/mL.

What about the daratumumab-mediated ADCC (percent specific lysis) of Daudi cells by AB-101, 10:1 E:T, 2 µg/mL daratumumab, 4 h of the same substance?
The daratumumab-mediated ADCC (percent specific lysis) of Daudi cells by AB-101, 10:1 E:T, 2 µg/mL daratumumab, 4 h was 79.5%.
